The text below walks through data of patent US20230365648A1 (published 2023).

Test [1] has as its target T1, Cyno monkey CD47 (Cyno monkey, UniProt A0A2K5X523 19-139).
T1 chain: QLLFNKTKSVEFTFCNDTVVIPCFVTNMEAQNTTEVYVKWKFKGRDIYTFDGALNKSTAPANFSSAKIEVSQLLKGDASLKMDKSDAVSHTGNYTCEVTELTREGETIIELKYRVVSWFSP
In words: BLI (Octet). In general terms: BLI is a label-free optical method that tracks binding on a fibre tip over time.

The target in another test is T2, mouse CD47 (mouse, UniProt Q61735 19-140).
T2 chain: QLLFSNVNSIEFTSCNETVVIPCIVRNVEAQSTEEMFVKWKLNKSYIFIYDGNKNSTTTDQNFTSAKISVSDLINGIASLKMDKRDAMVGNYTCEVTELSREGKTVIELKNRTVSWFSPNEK
In words: BLI (Octet).

In test [2] the target is T3, rhCD47-his (human CD47) (human, UniProt Q08722 19-139). In words: BLI (Octet).
In the next test the target is T4, rat CD47 (rat, UniProt P97829 19-140).
T4 chain: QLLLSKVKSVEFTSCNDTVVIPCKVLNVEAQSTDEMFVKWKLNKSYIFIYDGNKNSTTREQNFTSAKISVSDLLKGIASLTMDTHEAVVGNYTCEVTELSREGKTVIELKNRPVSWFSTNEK
Description: BLI (Octet).

Test [3] deals with T1, Cyno monkey CD47. Description: BLI (Octet).
The target in test [4] is T3, rhCD47-his (human CD47). Description: BLI (Octet). The source holds these as a separate data set.
For test [5], the target named is CD47 on human CD45 negative red blood cells (human, UniProt Q08722 19-323). In words: FACS cell binding.

Where two headings read alike, the source gives them in different places.

B1: Construct 50 (SIRPα fusion polypeptide SEQ ID NO: 10 construct without the YTE mutation, i.e. with the wild type IgG4 Fc domain) (Fc fusion)
chain: EEELQIIQPDKSVLVAAGETATLRCTITSLFPVGPIQWFRGAGPGRVLIYNQRQGPFPRVTTVSDTTKRNNMDFSIRIGNITPADAGTYYCIKFRKGSPDDVEFKSGAGTELSVRAKPSAAAPPCPPCPAPEFLGGPSVFLFPPKPKDTLMISRTPEVTCVVVDVSQEDPEVQFNWYVDGVEVHNAKTKPREEQFNSTYRVVSVLTVLHQDWLNGKEYKCKVSNKGLPSSIEKTISKAKGQPREPQVYTLPPSQEEMTKNQVSLTCLVKGFYPSDIAVEWESNGQPENNYKTTPPVLDSDGSFFLYSRLTVDKSRWQEGNVFSCSVMHEALHNHYTQKSLSLSLGK
In the case of B1, the Kd with Cyno monkey CD47 [1] came to 0.0974 nM; in the test with mouse CD47, 5.12 nM; with rhCD47-his (human CD47) [2], 0.03 nM; in the test with rat CD47 it was 1.03 nM; with Cyno monkey CD47 [3], 0.0974 nM; with rhCD47-his (human CD47) [4], 0.03 nM. Moreover, the EC50 in test [5] amounted to 12 nM.

B2: Construct 67 (SIRPα fusion polypeptide of SEQ ID NO: 10, SIRPα domain of SEQ ID NO: 2 and IgG4 Fc domain with a YTE mutation) (Fc fusion)
chain: EEELQIIQPDKSVLVAAGETATLRCTITSLFPVGPIQWFRGAGPGRVLIYNQRQGPFPRVTTVSDTTKRNNMDFSIRIGNITPADAGTYYCIKFRKGSPDDVEFKSGAGTELSVRAKPSAAAPPCPPCPAPEFLGGPSVFLFPPKPKDTLYITREPEVTCVVVDVSQEDPEVQFNWYVDGVEVHNAKTKPREEQFNSTYRVVSVLTVLHQDWLNGKEYKCKVSNKGLPSSIEKTISKAKGQPREPQVYTLPPSQEEMTKNQVSLTCLVKGFYPSDIAVEWESNGQPENNYKTTPPVLDSDGSFFLYSRLTVDKSRWQEGNVFSCSVMHEALHNHYTQKSLSLSLGK
As to B2, the Kd turned out to be 0.0211 nM in the test with Cyno monkey CD47 [1]; 1.61 nM with mouse CD47; 0.0117 nM with rhCD47-his (human CD47) [2]; 0.681 nM with rat CD47; 0.0211 nM with Cyno monkey CD47 [3]; 0.0117 nM with rhCD47-his (human CD47) [4]. In test [5], this molecule returned an EC50 of 5.8 nM.

As a reminder, the Kd is the constant that tells how readily two partners part at equilibrium. As usually defined, the EC50 is the concentration that produces a half-maximal response.
